According to patent publication US7588931B2, “High arachidonic acid producing strains of Yarrowia lipolytica” (E. I. du Pont de Nemours and Company, priority 2004, dated 2009):

B1: FBAIN: fructose-bisphosphate aldolase + intron promoter, SEQ ID NO:162 (nucleic acid, listed as Yarrowia lipolytica)
DNA: AAATTGCCCCGGAGAAGACGGCCAGGCCGCCTAGATGACAAATTCAACAACTCACAGCTGACTTTCTGCCATTGCCACTAGGGGGGGGCCTTTTTATATGGCCAAGCCAAGCTCTCCACGTCGGTTGGGCTGCACCCAACAATAAATGGGTAGGGTTGCACCAACAAAGGGATGGGATGGGGGGTAGAAGATACGAGGATAACGGGGCTCAATGGCACAAATAAGAACGAATACTGCCATTAAGACTCGTGATCCAGCGACTGACACCATTGCATCATCTAAGGGCCTCAAAACTACCTCGGAACTGCTGCGCTGATCTGGACACCACAGAGGTTCCGAGCACTTTAGGTTGCACCAAATGTCCCACCAGGTGCAGGCAGAAAACGCTGGAACAGCGTGTACAGTTTGTCTTAACAAAAAGTGAGGGCGCTGAGGTCGAGCAGGGTGGTGTGACTTGTTATAGCCTTTAGAGCTGCGAAAGCGCGTATGGATTTGGCTCATCAGGCCAGATTGAGGGTCTGTGGACACATGTCATGTTAGTGTACTTCAATCGCCCCCTGGATATAGCCCCGACAATAGGCCGTGGCCTCATTTTTTTGCCTTCCGCACATTTCCATTGCTCGGTACCCACACCTTGCTTCTCCTGCACTTGCCAACCTTAATACTGGTTTACATTGACCAACATCTTACAAGCGGGGGGCTTGTCTAGGGTATATATAAACAGTGGCTCTCCCAATCGGTTGCCAGTCTCTTTTTTCCTTTCTTTCCCCACAGATTCGAAATCTAAACTACACATCACACAATGCCTGTTACTGACGTCCTTAAGCGAAAGTCCGGTGTCATCGTCGGCGACGATGTCCGAGCCGTGAGTATCCACGACAAGATCAGTGTCGAGACGACGCGTTTTGTGTAATGACACAATCCGAAAGTCGCTAGCAACACACACTCTCTACACAAACTAACCCAGCTCTCC
modifications: misc_feature: Promoter FBAIN
B2: FBA: Y. lipolytica fructose-bisphosphate aldolase promoter, SEQ ID NO:161 (nucleic acid, listed as Yarrowia lipolytica)
DNA: TAAACAGTGTACGCAGTACTATAGAGGAACAATTGCCCCGGAGAAGACGGCCAGGCCGCCTAGATGACAAATTCAACAACTCACAGCTGACTTTCTGCCATTGCCACTAGGGGGGGCCTTTTTATATGGCCAAGCCAAGCTCTCCACGTCGGTTGGGCTGCACCCAACAATAAATGGGTAGGGTTGCACCAACAAAGGGATGGGATGGGGGGTAGAAGATACGAGGATAACGGGGCTCAATGGCACAAATAAGAACGAATACTGCCATTAAGACTCGTGATCCAGCGACTGACACCATTGCATCATCTAAGGGCCTCAAAACTACCTCGGAACTGCTGCGCTGATCTGGACACCACAGAGGTTCCGAGCACTTTAGGTTGCACCAAATGTCCCACCAGGTGCAGGCAGAAAACGCTGGAACAGCGTGTACAGTTTGTCTTAACAAAAAGTGAGGGCGCTGAGGTCGAGCAGGGTGGTGTGACTTGTTATAGCCTTTAGAGCTGCGAAAGCGCGTATGGATTTGGCTCATCAGGCCAGATTGAGGGTCTGTGGACACATGTCATGTTAGTGTACTTCAATCGCCCCCTGGATATAGCCCCGACAATAGGCCGTGGCCTCATTTTTTTGCCTTCCGCACATTTCCATTGCTCGGTACCCACACCTTGCTTCTCCTGCACTTGCCAACCTTAATACTGGTTTACATTGACCAACATCTTACAAGCGGGGGGCTTGTCTAGGGTATATATAAACAGTGGCTCTCCCAATCGGTTGCCAGTCTCTTTTTTCCTTTCTTTCCCCACAGATTCGAAATCTAAACTACACATCACACAATGCCTGTTACTGACGTCCTTAAGCGAAAGTCCGGTGTCATCGTCGGCGACGATGTCCGAGCCGTGAGTATCCACGACAAGATCAGTGTCGAGACGACGCGTTTTGTGTAATGACACAATCCGAAAGTCGCTAGCAACACACACTCTCTACACAAACTAACCCAGCTCTCC
modifications: misc_feature: Promoter FBA

Assays:
[1] = system: β-glucuronidase (GUS) reporter; test: Relative promoter activity rank from comparative GUS reporter studies (histochemical, fluorometric and/or Real Time PCR); format: cell-based, Yarrowia lipolytica; design: key: a ‘1’ corresponds to the promoter with lowest activity; a ‘7’ corresponds to the promoter with highest activity; details: relative to other promoters
Outline: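 GUS activity from each promoter construct was measured by histochemical and/or fluorometric assays and/or Real Time PCR. Promoters were ranked relative to one another, from 1 (lowest activity) to 7 (highest activity).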

[2] = system: β-glucuronidase (GUS) reporter; test: Comparative analysis of promoters by fluorometric assay of GUS expression; format: cell-based, Yarrowia lipolytica; details: for GUS activity relative to the GPD promoter: ATCC #76982 strains, FIG. 6A
Procedure: GUS activity was also assayed by fluorometric determination of the production of 4-methylumbelliferone (4-MU) from the corresponding substrate β-glucuronide (Jefferson, R. A. Plant Mol. Biol. Reporter 5:387-405 (1987)).
Yarrowia lipolytica ATCC #76982 strains containing plasmids pY5-30, PYZGDG, PYZGMG, pDMW212 and pDMW214 were grown from single colonies in 3 mL MM (as described above) at 30° C. to an OD600˜1.0. Then, the 3 mL cultures were each added to a 500 mL flask containing 50 mL MM and grown in a shaking incubator at 30° C. for about 24 hrs. The cells were collected by centrifugation, resuspended in Promega Cell Lysis Buffer and lysed using the BIO 101 Biopulverizer system (Vista, Calif.). After centrifugation, the supernatants were removed and kept on ice.
Similarly, Y. lipolytica strain Y2034 containing plasmids pY5-30, pYAT-GUS, pYGPAT-GUS and pDMW214 constructs, respectively, were grown from single colonies in 10 mL SD medium at 30° C. for 48 hrs to an OD600˜5.0. Two mL of each culture was collected for GUS activity assays, as described below, while 5 mL of each culture was switched into HGM.
Specifically, cells from the 5 mL aliquot were collected by centrifugation, washed once with 5 mL of HGM and resuspended in HGM. The cultures in HGM were then grown in a shaking incubator at 30° C. for 24 hrs. Two mL of each HGM culture were collected for the GUS activity assay, while the remaining culture was allowed to grow for an additional 96 hrs before collecting an additional 2 mL of each culture for the assay.
Each 2 mL culture sample in SD medium was resuspended in 1 mL of 0.5× cell culture lysis reagent (Promega). Resuspended cells were mixed with 0.6 mL of glass beads (0.5 mm diameter) in a 2.0 mL screw cap tube with a rubber O-ring. The cells were then homogenized in a Biospec mini beadbeater (Bartlesville, Okla.) at the highest setting for 90 sec. The homogenization mixtures were centrifuged for 2 min at 14,000 rpm in an Eppendof centrifuge to remove cell debris and beads. The supernatant was used for GUS assay and protein determination.
For each fluorometric assay, 100 μl of extract was added to […] of GUS assay buffer (2 mM 4-methylumbelliferyl-β-D-glucuronide (“MUG”) in extraction buffer) or 200 μl of extract was added to 800 μl of GUS assay buffer. The mixtures were placed at 37° C. Aliquots of 100 μl were taken at 0, 30 and 60 min time points and added to 900 μl of stop buffer (1 M Na2CO3). Each time point was read using a CytoFluor Series 4000 Fluorescence Multi-Well Plate Reader (PerSeptive Biosystems, Framingham, Mass.) set to an excitation wavelength of 360 nm and an emission wavelength of 455 nm. Total protein concentration of each sample was determined using 10 μl of extract and 200 μl of BioRad Bradford reagent or 20 μl of extract and 980 μl of BioRad Bradford reagent (Bradford, M. M. Anal. Biochem. 72:248-254 (1976)). GUS activity was expressed as nmoles of 4-MU per minute per mg of protein.

Row | Molecule | Activity “Rank” [1] | GUS activity relative to the GPD promoter [2] | GUS activity ([2]; strain Y2034, 24 hr, HGM) | GUS activity ([2]; strain Y2034, 48 hr, SD) | GUS activity ([2]; strain Y2034, 120 hr HGM) | reduction of promoter activity ([2]; switched from SD medium into HGM for 24 hrs)
1 | B1 | 7 | about 6.6 times | 30.694 nmoles of 4-MU per minute per mg of protein | 43.333 nmoles of 4-MU per minute per mg of protein | 17.200 nmoles of 4-MU per minute per mg of protein | 30%
2 | B2 | 4 | 2.2 times | – | – | – | –
